Tests used:
VanRSc = biological target: T1, VanRSc (Streptomyces coelicolor, UniProt Q8CJW1); details: BeF3- formed from BeSO4 and NaF; Mg2+ present; phosphomimetic bound to Asp51 in the receiver domain; crystals at pH 7, room temperature
T1 construct: gene SCO3590

[1] = biological target: full-length VanR from Streptomyces coelicolor, activated state (beryllium fluoride bound at Asp51) (Streptomyces coelicolor); experiment: crystal structure; activated VanRSc co-crystallized with beryllium fluoride, microbatch under oil, 2.5 M NaCl, 0.1 M Tris pH 7, 0.2 M MgCl2, room temperature; monomer in the asymmetric unit, dimer by crystal symmetry
[2] = biological target: T2, full-length VanR from Streptomyces coelicolor, inactive (unphosphorylated) state (Streptomyces coelicolor); experiment: AUC; sedimentation velocity, 20°C, 50 mM Tris pH 7.5, 50 mM NaCl, 10 mM MgCl2, without beryllium fluoride; 36.5 µM monomer; monomer-dimer model (dimer to monomers); details: both partners purified
T2 chain: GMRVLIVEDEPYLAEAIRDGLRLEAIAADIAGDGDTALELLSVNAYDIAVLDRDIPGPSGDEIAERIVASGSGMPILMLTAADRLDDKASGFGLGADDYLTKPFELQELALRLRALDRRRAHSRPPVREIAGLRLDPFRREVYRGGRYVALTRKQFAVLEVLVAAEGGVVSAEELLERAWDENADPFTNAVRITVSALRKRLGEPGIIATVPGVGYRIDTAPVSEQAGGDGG

[3] = biological target: T2, full-length VanR from Streptomyces …; experiment: AUC; sedimentation equilibrium, 4°C, 18 000, 20 000 and 22 000 rev/min, without beryllium fluoride; global fit, monomer-dimer model (dimer to monomers); details: both partners purified

## [F][Be-]([F])[F] [beryllium fluoride]
VanRSc
  X-ray crystallography, 2.03 A co-crystal structure: The Be atom is bound to one of the carboxylate O atoms of Asp51

## full-length VanR from Streptomyces coelicolor, activated state (beryllium fluoride bound at Asp51) (natural protein)
[1]
  stoichiometry N: 2

B1: full-length VanR from Streptomyces coelicolor, inactive (unphosphorylated) state (natural protein)
chain: GMRVLIVEDEPYLAEAIRDGLRLEAIAADIAGDGDTALELLSVNAYDIAVLDRDIPGPSGDEIAERIVASGSGMPILMLTAADRLDDKASGFGLGADDYLTKPFELQELALRLRALDRRRAHSRPPVREIAGLRLDPFRREVYRGGRYVALTRKQFAVLEVLVAAEGGVVSAEELLERAWDENADPFTNAVRITVSALRKRLGEPGIIATVPGVGYRIDTAPVSEQAGGDGG
modifications: unphosphorylated at Asp51 (paper numbering; entity position 52), no beryllium fluoride; Mg2+ present (10 mM MgCl2 in AUC). Wild-type residues 1-231 plus the N-terminal Gly left after SUMO cleavage. …
[2]
  Kd: > 1000 µM
[3]
  Kd: 37 µM
